Assay results as given in US20250101107A1 (REPERTOIRE IMMUNE MEDICINES, published 2025).

Target: T1, human CD8 on human T cells (human, UniProt P01732 22-235; P10966 22-210)
T1 construct: whole, on cells; Target as carried by human CD3+/CD8+ T cells, PBMCs or MART-1-specific T cells; the mice were immunized with human CD8a; also called hCD8; CD8 expressed on the cell surface
Assay: flow cytometry, 0.2 nM antibody on human CD8+ T cells, anti-human IgG detection (MFI AF647)
Protocol: The 24 humanized 02A01-derived anti-CD8 antibodies (excluding 02A01-VK3(D30E/N35Q)) were screened for their ability to bind human CD8 by evaluating binding to CD8+ T cells. The non-humanized parent (“02-Parent”) and the non-humanized parent comprising a heavy chain M39L liability mutation (“02-Parent-VH-M39L”) were used as controls. […] Cells were washed with 1×phosphate buffered saline (PBS) containing 1 mg/mL bovine serum albumin (PBS/BSA) and then stained with a 1:100 dilution of DyLight650-conjugated anti-human IgG H+L polyclonal antibody (ThermoFisher cat. no. Sa5-10129) in PBS/BSA. Following a 20-30 min incubation at 4° C., the cells were washed once with PBS/BSA, and then resuspended in PBS/BSA for analysis on a FACSCelesta using Diva software (BD Biosciences). The resulting data were analyzed using FlowJo. Data were quantified and reported as Max fluorescence intensity (MFI) of human IgG-Fc. […] Complete replacement of the HCDR1 (antibodies comprising VH5) eliminated binding to the CD8+ T cells.

T1 sequence (P01732 22-235, chain 1 of 2): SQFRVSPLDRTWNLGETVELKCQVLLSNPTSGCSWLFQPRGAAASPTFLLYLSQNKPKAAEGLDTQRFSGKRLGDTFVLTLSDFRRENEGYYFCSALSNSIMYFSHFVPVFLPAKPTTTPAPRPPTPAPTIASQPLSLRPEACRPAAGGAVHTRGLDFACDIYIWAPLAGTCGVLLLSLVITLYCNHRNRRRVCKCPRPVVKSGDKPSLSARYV
T1 sequence (P10966 22-210, chain 2 of 2): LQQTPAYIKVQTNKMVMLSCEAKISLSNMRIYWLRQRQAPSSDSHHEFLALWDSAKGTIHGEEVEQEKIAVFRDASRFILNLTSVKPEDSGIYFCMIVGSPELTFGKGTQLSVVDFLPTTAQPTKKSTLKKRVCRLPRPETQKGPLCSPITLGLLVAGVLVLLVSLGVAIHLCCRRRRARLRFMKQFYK

binding result | Binder
binds | humanized 02A01-VH1-VK1 (antibody, V domains shown) VH: EVQLVQSGPEVVKPGATLKISCKASGYTFTDFTMHWVKQAPGKSLEWIGLVNPNNGGNIYNQNFKGRATLTVDTSTSTAYMELSSLRSEDTSVYYCGRVPLYTSHGMDYWGQGTLVTVSS VL: EIVLTQSPATLSVSPGERATISCRASESVDSYDINSMHWYQQKPGQPPRLLIYRASHLQSGIPARFSGSGSRTDFTLTISSVEPEDFATYYCQQSNEDPLTFGQGTKLEIK
binds | humanized 02A01-VH2-VK1 (antibody, V domains shown) VH: EVQLVQSGAEVKKPGATLKISCKASGYTFTDFTMHWVQQAPGKGLEWIGLVNPNNGGNIYNQNFKGRATLTVDTSTSTAYMELSSLRSEDTSVYYCGRVPLYTSHGMDYWGQGTLVTVSS VL: EIVLTQSPATLSVSPGERATISCRASESVDSYDINSMHWYQQKPGQPPRLLIYRASHLQSGIPARFSGSGSRTDFTLTISSVEPEDFATYYCQQSNEDPLTFGQGTKLEIK
binds | humanized 02A01-VH1-VK3 (antibody, V domains shown) VH: EVQLVQSGPEVVKPGATLKISCKASGYTFTDFTMHWVKQAPGKSLEWIGLVNPNNGGNIYNQNFKGRATLTVDTSTSTAYMELSSLRSEDTSVYYCGRVPLYTSHGMDYWGQGTLVTVSS VL: EIVLTQSPATLSLSPGERATISCRASESVDSYDINSMHWYQQKPGQAPRLLIYRASHLQSGIPARFSGSGSRTDFTLTISSLEPEDFATYYCQQSNEDPLTFGQGTKLEIK

The remaining lines, values behind:

Binder | binding result
02-Parent-VH-M39L (antibody, V domains shown, also called murine 02A01 VH-M39L) VH: EVQLQQSGPELVKPGASLKISCKASGYTFTDFTLHWVKQSHGKSLEWIGLVNPNNGGNIYNQNFKGKATLTVDTSSSTAYMELRSLTSEDSSVYYCGRVPLYTSHGMDYWGQGTSVTVSS VL: DIVLTQSPAFLAVSLGQRATISCRASESVDSYDINSMHWYQQKPGQPPKLLIYRASHLQSGIPARFSGSGSRTDFTLTINFVEADDVATYYCQQSNEDPLTFGAGTKLELK | binds
humanized 02A01-VH2-VK2 (antibody, V domains shown) VH: EVQLVQSGAEVKKPGATLKISCKASGYTFTDFTMHWVQQAPGKGLEWIGLVNPNNGGNIYNQNFKGRATLTVDTSTSTAYMELSSLRSEDTSVYYCGRVPLYTSHGMDYWGQGTLVTVSS VL: EIVLTQSPATLSVSPGERATISCRASESVDSYDINSMHWYQQKPGQAPRLLIYRASHLQSGIPARFSGSGSRTDFTLTISSVEPEDFATYYCQQSNEDPLTFGQGTKLEIK | binds
humanized 02A01-VH1-VK2 (antibody, V domains shown) VH: EVQLVQSGPEVVKPGATLKISCKASGYTFTDFTMHWVKQAPGKSLEWIGLVNPNNGGNIYNQNFKGRATLTVDTSTSTAYMELSSLRSEDTSVYYCGRVPLYTSHGMDYWGQGTLVTVSS VL: EIVLTQSPATLSVSPGERATISCRASESVDSYDINSMHWYQQKPGQAPRLLIYRASHLQSGIPARFSGSGSRTDFTLTISSVEPEDFATYYCQQSNEDPLTFGQGTKLEIK | binds
humanized 02A01-VH3-VK2 (antibody, V domains shown) VH: EVQLVQSGAEVKKPGATLKISCKASGYTFTDFTMHWVQQAPGKGLEWIGLVNPNNGGNIYAEKFQGRATLTVDTSTSTAYMELSSLRSEDTSVYYCGRVPLYTSHGMDYWGQGTLVTVSS VL: EIVLTQSPATLSVSPGERATISCRASESVDSYDINSMHWYQQKPGQAPRLLIYRASHLQSGIPARFSGSGSRTDFTLTISSVEPEDFATYYCQQSNEDPLTFGQGTKLEIK | binds
humanized 02A01-VH3-VK1 (antibody, V domains shown) VH: EVQLVQSGAEVKKPGATLKISCKASGYTFTDFTMHWVQQAPGKGLEWIGLVNPNNGGNIYAEKFQGRATLTVDTSTSTAYMELSSLRSEDTSVYYCGRVPLYTSHGMDYWGQGTLVTVSS VL: EIVLTQSPATLSVSPGERATISCRASESVDSYDINSMHWYQQKPGQPPRLLIYRASHLQSGIPARFSGSGSRTDFTLTISSVEPEDFATYYCQQSNEDPLTFGQGTKLEIK | binds
